Assay results from paper PMC3799434, “RNA polymerase III-specific general transcription factor IIIC contains a heterodimer resembling TFIIF Rap30/Rap74” (Nucleic Acids Research, 2013).
Changes are numbered by the printed parent chain. One block for each molecule: values may come before it.

Experiments:
[1] = target: T1, Sfc1 186-283 (winged helix, lacks WHI) (Schizosaccharomyces pombe, UniProt O14229 186-283); experiment: filter binding; details: Buffer D: 20 mM Tris-HCl pH 7.5, 200 mM KCl, 2 mM MgCl2, 10 mM DTT, 25 C (EMSA and nitrocellulose filter binding)
T1 sequence: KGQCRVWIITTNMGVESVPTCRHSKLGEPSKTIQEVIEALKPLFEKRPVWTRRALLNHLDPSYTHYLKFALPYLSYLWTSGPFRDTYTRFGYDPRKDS

Sfc1-DBD = target: T2, Sfc1-DBD (Schizosaccharomyces pombe, UniProt O14229 186-396); experiment: unspecified (data not shown); similar affinity to A-box; Buffer D: 20 mM Tris-HCl pH 7.5, 200 mM KCl, 2 mM MgCl2, 10 mM DTT, 25 C (EMSA and nitrocellulose filter binding); details: protein: recombinant; tags: N-terminal His-tag, TEV-cleaved; label: 32P; blunt
T2 sequence: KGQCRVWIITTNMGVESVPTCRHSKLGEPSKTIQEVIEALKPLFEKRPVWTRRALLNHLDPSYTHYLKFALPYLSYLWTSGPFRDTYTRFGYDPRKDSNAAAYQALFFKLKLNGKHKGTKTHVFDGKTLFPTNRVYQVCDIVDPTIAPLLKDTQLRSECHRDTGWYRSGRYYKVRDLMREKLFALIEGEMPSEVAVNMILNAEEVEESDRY

[2] = target: T3, Sfc1-DBD (C-terminal DNA-binding domain of Sfc1, residues 186-396), recombinant (Schizosaccharomyces pombe, UniProt O14229 186-396); experiment: ITC; 25°C, VP-ITC; 50 mM HEPES pH 7.5, 150 mM NaCl, 2 mM β-mercaptoethanol; 10 µl injections of 200 µM peptide into 2 ml of 10 µM protein; data not shown; details: both partners purified
T3 construct: Sfc1, Schizosaccharomyces pombe, residues 186-396 (winged-helix domain 186-283 and WHI domain 284-396); The crystal structure (4BJI) used selenomethionine-substituted protein; Purification details are in the Supplemental Methods; source: E. coli, purified (Ni-NTA, TEV, ion exchange, no gel filtration); not shown: His-tag, N-terminal, cleaved
T3 sequence (looked up): T2 sequence

[3] = target: T4, Sfc7 (S. pombe TFIIIC τA subunit), full length (Schizosaccharomyces pombe, UniProt A6X980 1-120); experiment: ion-exchange chromatography; fragments from limited proteolysis of the purified Sfc1/Sfc7 heterodimer, separated by ion-exchange chromatography; details: both partners purified
T4 construct: Sfc7, Schizosaccharomyces pombe, full length (Mr = 13.3 kDa); cloned into pCDF-MCN; PDB 4BJJ holds residues 1-101; also called orthologue of S. cerevisiae τ55 (Tfc7) and human TFIIIC35; source: E. coli BL21 (DE3) RIPL, co-expressed with Sfc1, purified (Ni-NTA, TEV, second Ni-NTA, Mono Q, Superdex S200)
T4 sequence (looked up): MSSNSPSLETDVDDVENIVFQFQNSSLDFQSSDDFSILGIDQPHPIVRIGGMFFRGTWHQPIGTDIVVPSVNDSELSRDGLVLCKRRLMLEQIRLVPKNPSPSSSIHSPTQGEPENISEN

Sfc1 186-456 = target: T5, Sfc1 186-456 (Schizosaccharomyces pombe, UniProt O14229 186-456); experiment: filter binding; Buffer D: 20 mM Tris-HCl pH 7.5, 200 mM KCl, 2 mM MgCl2, 10 mM DTT, 25 C (EMSA and nitrocellulose filter binding); details: protein: recombinant; tags: N-terminal His-tag, TEV-cleaved; label: 32P; blunt
T5 sequence: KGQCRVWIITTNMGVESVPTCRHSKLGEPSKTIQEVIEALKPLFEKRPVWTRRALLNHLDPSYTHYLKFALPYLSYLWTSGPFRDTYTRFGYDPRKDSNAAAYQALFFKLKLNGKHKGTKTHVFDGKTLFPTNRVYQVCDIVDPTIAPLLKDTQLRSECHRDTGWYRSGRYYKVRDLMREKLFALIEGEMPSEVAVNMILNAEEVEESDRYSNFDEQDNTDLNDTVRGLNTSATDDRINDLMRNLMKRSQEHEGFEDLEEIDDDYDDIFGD

[4] = target: T6, Sfc1 1-396;Sfc7 full length (Schizosaccharomyces …, UniProt O14229;A6X980 1-396;1-120, |); experiment: as above; details: protein: recombinant;recombinant; tags: N-terminal His-tag, TEV-cleaved;; copies: 1;1; label: 32P; blunt
T6 sequence 1: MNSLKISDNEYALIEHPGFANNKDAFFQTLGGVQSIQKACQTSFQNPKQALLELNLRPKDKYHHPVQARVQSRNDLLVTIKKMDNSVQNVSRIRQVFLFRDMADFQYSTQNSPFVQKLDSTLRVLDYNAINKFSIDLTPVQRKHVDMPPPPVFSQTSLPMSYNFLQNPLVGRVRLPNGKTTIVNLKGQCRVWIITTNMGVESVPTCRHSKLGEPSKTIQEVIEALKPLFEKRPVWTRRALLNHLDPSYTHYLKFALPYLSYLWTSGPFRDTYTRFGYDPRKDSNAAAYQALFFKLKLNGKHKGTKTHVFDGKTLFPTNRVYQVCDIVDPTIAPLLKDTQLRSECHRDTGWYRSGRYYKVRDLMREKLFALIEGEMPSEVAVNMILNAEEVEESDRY
T6 sequence 2: T4 sequence (looked up)

[5] = target: T7, Sfc1 full length;Sfc7 full length (Schizosaccharomyces …, UniProt O14229;A6X980 1-456;1-120, |); experiment: as above; details: protein: recombinant;recombinant; tags: N-terminal His-tag, TEV-cleaved;; copies: 1;1; label: 32P; blunt
T7 sequence 1: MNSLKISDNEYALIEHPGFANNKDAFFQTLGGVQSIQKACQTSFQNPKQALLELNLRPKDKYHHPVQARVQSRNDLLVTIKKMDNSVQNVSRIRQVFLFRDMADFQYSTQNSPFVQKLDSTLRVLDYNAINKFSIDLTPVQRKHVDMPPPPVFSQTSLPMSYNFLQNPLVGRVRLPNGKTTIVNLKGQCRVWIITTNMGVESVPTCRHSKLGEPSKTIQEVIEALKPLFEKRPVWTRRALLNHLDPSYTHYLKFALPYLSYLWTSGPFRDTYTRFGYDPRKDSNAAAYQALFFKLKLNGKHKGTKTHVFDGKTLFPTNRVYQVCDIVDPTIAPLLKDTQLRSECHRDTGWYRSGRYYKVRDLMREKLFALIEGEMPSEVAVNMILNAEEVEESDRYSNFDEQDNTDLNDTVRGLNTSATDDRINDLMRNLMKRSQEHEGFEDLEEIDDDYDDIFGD
T7 sequence 2: T4 sequence (looked up)

Sfc1 111-456 = target: T8, Sfc1 111-456 (Schizosaccharomyces pombe, UniProt O14229 111-456); experiment: as above; details: protein: recombinant; tags: N-terminal His-tag, TEV-cleaved; label: 32P; blunt
T8 sequence: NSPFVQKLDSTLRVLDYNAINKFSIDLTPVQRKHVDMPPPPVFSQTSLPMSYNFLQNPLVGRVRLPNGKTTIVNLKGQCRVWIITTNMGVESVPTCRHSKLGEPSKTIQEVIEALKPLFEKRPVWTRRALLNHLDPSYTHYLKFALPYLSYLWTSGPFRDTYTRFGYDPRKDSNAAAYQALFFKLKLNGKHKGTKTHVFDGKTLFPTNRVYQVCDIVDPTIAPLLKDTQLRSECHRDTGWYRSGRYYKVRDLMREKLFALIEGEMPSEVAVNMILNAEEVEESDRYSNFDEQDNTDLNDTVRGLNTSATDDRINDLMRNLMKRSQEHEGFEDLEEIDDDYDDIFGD

Sfc1-DBD R237A = target: T9, Sfc1-DBD R237A (Schizosaccharomyces pombe, UniProt O14229 186-396, R237A); experiment: as above; details: protein: recombinant; tags: N-terminal His-tag, TEV-cleaved; label: 32P; blunt
T9 sequence: T2 sequence with R52A

Sfc1-DBD K294A = target: T10, Sfc1-DBD K294A (Schizosaccharomyces pombe, UniProt O14229 186-396, K294A); experiment: as above; details: protein: recombinant; tags: N-terminal His-tag, TEV-cleaved; label: 32P; blunt
T10 sequence: T2 sequence with K109A

Sfc1-DBD R269A = target: T11, Sfc1-DBD R269A (Schizosaccharomyces pombe, UniProt O14229 186-396, R269A); experiment: as above; details: protein: recombinant; tags: N-terminal His-tag, TEV-cleaved; label: 32P; blunt
T11 sequence: T2 sequence with R84A

Sfc1-DBD R269A/K294A = target: T12, Sfc1-DBD R269A/K294A (Schizosaccharomyces pombe, UniProt O14229 186-396, R269A;K294A); experiment: as above; details: protein: recombinant; tags: N-terminal His-tag, TEV-cleaved; label: 32P; blunt
T12 sequence: T2 sequence with R84A, K109A

[6] = target: T1, Sfc1 186-283 (winged helix, lacks WHI); experiment: as above; details: protein: recombinant; tags: N-terminal His-tag, TEV-cleaved; label: 32P; blunt

Molecule: A-box non-coding ssDNA (nc-ss)
binding signal (fold lower affinity than Sfc1-DBD) [1]: 10

B1: B-box dsDNA (25 bp) (dsDNA)
DNA 1: CGACCCGGGTTCGATTCCCGGCCAA
DNA 2: TTGGCCGGGAATCGAACCCGGGTCG
binding result (Sfc1-DBD): binds

Kd [2]: 3000 ± 800 nM
B2: Sfc1_(435-456) synthetic peptide (22mer acidic Sfc1 tail peptide) (peptide)
peptide: QEHEGFEDLEEIDDDYDDIFGD
notes: Sfc1, Schizosaccharomyces pombe, the 22 C-terminal residues (435-456), pI 3.5; The methods call it Sfc1_(434-456); also called Sfc1_(434-456) peptide (methods); acidic tail peptide; source: synthetic peptide

binding result [3]: binds
B3: Sfc1-NT, smaller protease-resistant Sfc1 fragment (residues 1-107) (domain or fragment, Schizosaccharomyces pombe, UniProt O14229 1-107, looked up)
chain: MNSLKISDNEYALIEHPGFANNKDAFFQTLGGVQSIQKACQTSFQNPKQALLELNLRPKDKYHHPVQARVQSRNDLLVTIKKMDNSVQNVSRIRQVFLFRDMADFQY
notes: Sfc1, Schizosaccharomyces pombe, residues 1-107, assigned by electrospray mass spectrometry and peptide mass fingerprinting; also called smaller Sfc1 fragment; source: limited proteolysis of the purified Sfc1/Sfc7 heterodimer made in E. coli; not shown: His-tag, N-terminal, cleaved

B4: A-box dsDNA (25 bp) (dsDNA)
DNA 1: CGAAGTGGCCGAGTGGTCTATGGCG
DNA 2: CGCCATAGACCACTCGGCCACTTCG
binding result (Sfc1 186-456): no binding
binding result [4]: binds
binding result [5]: no binding
binding result (Sfc1 111-456): no binding
binding signal (Sfc1-DBD R237A): > 2 fold lower affinity than Sfc1-DBD
binding signal (Sfc1-DBD K294A): > 2 fold lower affinity than Sfc1-DBD
binding signal (Sfc1-DBD R269A): > 2 fold lower affinity than Sfc1-DBD
binding signal (Sfc1-DBD R269A/K294A): > 2 fold lower affinity than Sfc1-DBD
binding signal [6]: ~10 fold lower affinity than Sfc1-DBD
